{"source": "paper PMC10643120", "about": "(Nature structural & molecular biology, 2023)", "proteins": {"B1": {"name": "201Φ2-1 gp2 (ChmB), purified (natural protein, Pseudomonas phage 201Φ2-1, UniProt B3FJX8 1-179, looked up)", "chain": "MTLIAKPAVPDTEVLNHIGRDLLLKDEDGSFKLQRHLKILTEEGLVHQVSFAQVDGLLNILDSTRETPPCSPLQYLITHYDLKDLVELGKDGWLVPEYQVVVMHSSKTVRFEGKLTRVGSIDKEFTFALGGFDFIQQLSLARCIASLGKEFEQVIGTFDCTYVFKTGPDGISVSTDIGV"}, "B2": {"name": "gp2 homolog of phage Psa21 (gp3), purified (natural protein, Pseudomonas phage Psa21, UniProt A0A481W4E6 1-229, looked up)", "chain": "MNPVYDIFNDIANNMVTVENKEEFLSNTVRLVGASGKEHVLSIAQAQLLLGVLDGSHQFLTDYNPLEFLLFSYQFQDKIKLKYVAVQYQIIYDADDDSIFVSGVTRHPMTVVGHPDYVAGASVPIETFQTTIPNVGLYGGLALVNCIATQSPDFAPVKGSFGGSFIFEFDGGKQSIRRYVPAEIDEPVIHKEELQEALDEAVKKFVPSAAPKVEFNGIKDTSTKTEQEI"}, "B3": {"name": "ΦPA3 gp2 (ChmB), purified (natural protein, Pseudomonas phage ΦPA3, UniProt F8SJN3 1-197, looked up)", "chain": "MTDVAYPYLETSTLFDNIVKGQILEPDAESPQLSHVLKITDAAGIGHEVTFFQLSILLAILQGNKHELTDNQPHQYLVNQWVLTDLHNIYDEGYVMTSHRVIVDHVEEVATFTGTLVHQKTIRSHPNWQEGFTAPVKEFEFNLENFGIFHQIVFSQCIANLTPELDWVARTFGHSYIFEMEGRNVRVASIQEEGTTE"}}, "data": [{"biological_target": "the molecule itself", "assay": "SEC-MALS; 100 μL of purified protein at 5 mg/mL on Superdex 200 Increase 10/300 GL in buffer GF (300 mM NaCl, 1 mM DTT)", "values": [{"protein": "B1", "stoichiometry N": 2}, {"protein": "B2", "stoichiometry N": 2}, {"protein": "B3", "stoichiometry N": 2}]}]}
